9 variants from IntAct's records for PubMed 22578008 can be followed below.

The chains are these.
B1: E3 ubiquitin-protein ligase NHLRC1 (Homo sapiens), Q6VVB1 (parent)
chain: MAAEASESGPALHELMREAEISLLECKVCFEKFGHRQQRRPRNLSCGHVVCLACVAALAHPRTLALECPFCRRACRGCDTSDCLPVLHLIELLGSALRQSPAAHRAAPSAPGALTCHHTFGGWGTLVNPTGLALCPKTGRVVVVHDGRRRVKIFDSGGGCAHQFGEKGDAAQDIRYPVDVTITNDCHVVVTDAGDRSIKVFDFFGQIKLVIGGQFSLPWGVETTPQNGIVVTDAEAGSLHLLDVDFAEGVLRRTERLQAHLCNPRGVAVSWLTGAIAVLEHPLALGTGVCSTRVKVFSSSMQLVGQVDTFGLSLYFPSKITASAVTFDHQGNVIVADTSGPAILCLGKPEEFPVPKPMVTHGLSHPVALTFTKENSLLVLDTASHSIKVYKVDWG
partner: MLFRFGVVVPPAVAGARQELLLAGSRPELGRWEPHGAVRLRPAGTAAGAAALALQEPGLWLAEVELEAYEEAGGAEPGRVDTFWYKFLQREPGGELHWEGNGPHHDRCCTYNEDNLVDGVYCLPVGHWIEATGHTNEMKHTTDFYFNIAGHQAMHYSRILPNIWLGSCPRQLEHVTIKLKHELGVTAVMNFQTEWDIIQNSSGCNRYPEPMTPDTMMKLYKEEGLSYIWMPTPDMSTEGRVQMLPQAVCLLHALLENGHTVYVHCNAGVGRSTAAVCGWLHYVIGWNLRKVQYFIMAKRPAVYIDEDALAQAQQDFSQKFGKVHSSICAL
B2: Laforin (Mus musculus), Q9WUA5 (parent)
chain: B1 partner
partner: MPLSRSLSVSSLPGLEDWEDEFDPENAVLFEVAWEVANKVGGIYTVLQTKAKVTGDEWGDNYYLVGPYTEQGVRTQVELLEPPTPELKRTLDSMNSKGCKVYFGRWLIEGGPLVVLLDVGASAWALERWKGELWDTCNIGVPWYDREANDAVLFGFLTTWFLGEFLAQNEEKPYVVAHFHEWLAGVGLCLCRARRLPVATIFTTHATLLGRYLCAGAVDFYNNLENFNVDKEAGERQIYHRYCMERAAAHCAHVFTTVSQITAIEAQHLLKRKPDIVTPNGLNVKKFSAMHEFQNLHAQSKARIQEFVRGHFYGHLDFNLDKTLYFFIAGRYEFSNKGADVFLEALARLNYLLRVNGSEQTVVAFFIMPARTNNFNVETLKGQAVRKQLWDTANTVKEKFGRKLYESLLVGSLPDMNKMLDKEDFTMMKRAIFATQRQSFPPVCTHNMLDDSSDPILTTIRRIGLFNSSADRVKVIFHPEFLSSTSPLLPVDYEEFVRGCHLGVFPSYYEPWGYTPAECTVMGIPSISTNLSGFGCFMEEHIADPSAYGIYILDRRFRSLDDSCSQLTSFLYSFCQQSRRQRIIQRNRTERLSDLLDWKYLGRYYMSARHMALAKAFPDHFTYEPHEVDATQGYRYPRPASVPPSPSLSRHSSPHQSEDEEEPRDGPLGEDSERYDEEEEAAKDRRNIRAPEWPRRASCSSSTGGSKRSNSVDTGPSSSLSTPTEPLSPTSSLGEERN

Variants of B1 are the subject of one assay. The settings on record: with epm2a_mouse Epm2a.
Consider Q302P, for which the “effect of a mutation on the interaction” value is “decreasing interaction”.

The variants in the next assay derive from B1. As to conditions: with epm2a_mouse Epm2a. The source holds these as a separate data set.
Consider C26S, for which the “effect of a mutation on the interaction” value is “decreasing interaction”.

Variants of B1 are the subject of the next assay. The settings on record: with epm2a_mouse Epm2a. This is another data set of the same source.
As for D233A, the “effect of a mutation on the interaction” value is listed as “disrupting interaction”.

Another assay covers variants of B1. As to conditions: with epm2a_mouse Epm2a. This is another data set of the same source.
Regarding I198N, the “effect of a mutation on the interaction” value is “disrupting interaction”.

A further assay covers variants of B1. As to conditions: with epm2a_mouse Epm2a. The source holds these as a separate data set.
For E280K, the “effect of a mutation on the interaction” value is “disrupting interaction”.

The variants in another assay derive from B1. The settings on record: with epm2a_mouse Epm2a. This is another data set of the same source.
Turning to L87P, the “effect of a mutation on the interaction” value is listed as “decreasing interaction”.

The variants in a further assay derive from B1. The settings on record: with epm2a_mouse Epm2a. The source holds these as a separate data set.
In the case of D146N, the “effect of a mutation on the interaction” value was “disrupting interaction”.

Another assay covers variants of B1. The settings on record: with epm2a_mouse Epm2a. This is another data set of the same source.
As for P264H, the “effect of a mutation on the interaction” value is given as “disrupting interaction”.

Variants of B2 are the subject of another assay. The settings on record: with gys1_mouse Gys1, Q9Z1E4.
With C265S, the “effect of a mutation on the interaction” value is reported as “increasing interaction”.
